# Source: US20210380703A1
# Substitutions are numbered along the chain they refer to.
# B1: 371_B10 (antibody, V domains shown)
# VH: EVQLLESGGGLVQPGGSLRLSCAASGFTFDSYSMNWVRQAPGKGLEWVSNINYNGGYTGYADSVKGRFTISRDNSKNTLYLQMNSLRAEDTAVYYCARSATWHDTHLDYWGQGTLVTVSS
# VL: DIQMTQSPSSLSASVGDRVTITCRASQSIVSYVNWYQQKPGKAPKLLIYAATSRASGVPSRFSGSGSGTDFTLTISSLQPEDFATYYCQQSYDLPLTFGGGTKVEIK
# B2: 368_G11 (antibody, V domains shown)
# VH: B1 VH with S33G, N35H, N50G, G55S, T58K, G59S, S99A, H106A
# VL: B1 VL with V30L, S31T, V33L, Y92D, D93N, L94T
# B3: 365_G02 (antibody, V domains shown)
# VH: B1 VH with D30S, S31D, G55S, T58K
# VL: B1 VL with S31T, V33L, L47V, A51V, R54L, A55H, D93E
# B4: 365_D06 (antibody, V domains shown)
# VH: B1 VH with G59S
# VL: B1 VL with V30L, S31T, D93S
# B5: 374_C07 (antibody, V domains shown)
# VH: B1 VH with G59S
# VL: B1 VL with V30I, V33L, Y92D, D93E
# B6: 369_A12 (antibody, V domains shown)
# VH: B1 VH with D30S, N35H, S49A, N50S, G55S, S99A
# VL: B1 VL with V30L, S31T, V33L, A55H
# B7: 368_C12 (antibody, V domains shown)
# VH: B1 VH with S33G, N35H, S49A, N50S, G59S, S99A
# VL: B1 VL with V30L, S31T, V33L, Y92D, D93S, L94N
# B8: 368_G08 (antibody, V domains shown)
# VH: B1 VH with S31D, S33G, N50S, G55S, T58K, G59S
# VL: B1 VL with A55H, D93N, L94N
# B9: 369_C06 (antibody, V domains shown)
# VH: B1 VH with D30S, N35H, N50S, T58K, G59S, S99A
# VL: B1 VL with V30L, L94S
# B10: 368_G07 (antibody, V domains shown)
# VH: B1 VH with D30S, N35H, N50S, G59S
# VL: B1 VL with L47V, L94T
# B11: 375_G10 (antibody, V domains shown)
# VH: B1 VH with D30S, S33G, N50S, T58K, G59S
# VL: B1 VL with S31T, V33L, L47V, A55H, L94T
# B12: 374_G12 (antibody, V domains shown)
# VH: B1 VH with S31D, S33G, N50S, T58K, G59S
# VL: B1 VL with V30L, S31T, L47V, R54L, D93N, L94S
# B13: 373_D02 (antibody, V domains shown)
# VH: B1 VH with D30S, G55S, T58K
# VL: B1 VL with V30L, V33L, R54L
# B14: 373_A07 (antibody, V domains shown)
# VH: B1 VH with D30S
# VL: B1 VL with V30L, S31T, Y92D, D93N
# B15: 374_A03 (antibody, V domains shown)
# VH: B1 VH with G59S
# VL: B1 VL with V30L, S31T, V33L, L94N
# B16: 370_A10 (antibody, V domains shown)
# VH: B1 VH with D30S, S31D, N50S, G55S, T58K
# VL: B1 VL with V30L, R54L, L94T
# B17: 369_E09 (antibody, V domains shown)
# VH: B1 VH with G55S, T58K
# VL: B1 VL with V30L, V33L, L47V
# B18: 375_G12 (antibody, V domains shown)
# VH: B1 VH with S33G, N35H, N50S, G59S
# VL: B1 VL with A55H, L94T
# B19: 369_B08 (antibody, V domains shown)
# VH: B1 VH with S33G, N35H, N50S, G59S, S99A
# VL: B1 VL with V30L, D93E, L94S
# B20: 375_F01 (antibody, V domains shown)
# VH: B1 VH with D30S, N50S, G55S
# VL: B1 VL with V33L, L47V, L94N
# B21: 365_G07 (antibody, V domains shown)
# VH: B1 VH with S33G, N35H, N50S, G59S, S99A, T101N, H106A
# VL: B1 VL with V33L, L94N
# B22: 365_A02 (antibody, V domains shown)
# VH: B1 VH with G59S
# VL: B1 VL with V30L, S31T, D93N, L94S
# B23: 374_E03 (antibody, V domains shown)
# VH: B1 VH with D30S, G55S, T58K
# VL: B1 VL with V30L, S31T, L47V, R54L, L94T
# B24: 367_G03 (antibody, V domains shown)
# VH: B1 VH with N35H, S49A, G59S, S99A
# VL: B1 VL with L47V, A55H
# B25: 374_E06 (antibody, V domains shown)
# VH: B1 VH with N50S, G55S, T58K
# VL: B1 VL with V30L, V33L
# B26: 369_B07 (antibody, V domains shown)
# VH: B1 VH with S33G, N35H, S49A, T58K, G59S, S99A
# VL: B1 VL with L47V, R54L
# B27: 368_H10 (antibody, V domains shown)
# VH: B1 VH with D30S, N50S, G55S, T58K
# VL: B1 VL with L47V, A51V, R54L, D93E, L94T
# B28: 369_C11 (antibody, V domains shown)
# VH: B1 VH with D30S, S31D, S33G, N35H, S49A, N50G, S99A
# VL: B1 VL with V30L, V33L, L47V, L94T
# B29: 368_D06 (antibody, V domains shown)
# VH: B1 VH with D30S, S33G, S99A
# VL: B1 VL with V30L, L47V, A55H, D93E, L94N
# B30: 369_C09 (antibody, V domains shown)
# VH: B1 VH with D30S, S33G, N35H, N50S, S99A
# VL: B1 VL with V33L, L47V, A55H
# B31: 374_D11 (antibody, V domains shown)
# VH: B1 VH with S33G, G55S
# VL: B1 VL with V30L, S31T, V33L, D93E, L94T
# B32: 374_G01 (antibody, V domains shown)
# VH: B1 VH with G55S, G59S
# VL: B1 VL with V30L, S31T, A51T, A55H, D93N
# B33: 368_B04 (antibody, V domains shown)
# VH: B1 VH with S33G, N35H, N50S, G59S, S99A
# VL: B1 VL with V33L, L47V, D93E, L94N
# B34: 369_A04 (antibody, V domains shown)
# VH: B1 VH with S33G, N35H, S49A, N50S, T58K, G59S, S99A
# VL: B1 VL with L47V, R54L
# B35: 368_C07 (antibody, V domains shown)
# VH: B1 VH with D30S, S33G, N35H, S49A, N50G, G55S, G59S, S99A
# VL: B1 VL with L47V, D93E, L94N
# B36: 369_G09 (antibody, V domains shown)
# VH: B1 VH
# VL: B1 VL with S31T, V33L
# B37: 365_E04 (antibody, V domains shown)
# VH: B1 VH with S33G, N35H, S49A, N50S, T58K, G59S, S99A, T101N, H106A
# VL: B1 VL with V30L, R54L, D93E
# B38: 367_H08 (antibody, V domains shown)
# VH: B1 VH with S33G, N50S, G59S, S99A
# VL: B1 VL with V30L, S31T, A55H, D93N
# B39: 367_H04 (antibody, V domains shown)
# VH: B1 VH with D30S, N50S, G59S
# VL: B1 VL with V30L, S31T, A55H, Y92D, D93N, L94N
# B40: 370_D07 (antibody, V domains shown)
# VH: B1 VH with D30S, S33G, G55S
# VL: B1 VL with V30L, L47V, R54L, D93E, L94S
# B41: 374_A08 (antibody, V domains shown)
# VH: B1 VH with G55S, G59S
# VL: B1 VL with S31T, V33L, R54L
# B42: 368_B12 (antibody, V domains shown)
# VH: B1 VH with S33G, N35H, N50G, G55S, G59S, S99A
# VL: B1 VL
# B43: 368_E08 (antibody, V domains shown)
# VH: B1 VH with S33G, N35H, S49A, G55S, S99A
# VL: B1 VL with V30L, L47V, R54L, A55H, D93E, L94T
# B44: 367_D02 (antibody, V domains shown)
# VH: B1 VH with S31D, G59S
# VL: B1 VL with S31T, D93E, L94N
# B45: 370_A08 (antibody, V domains shown)
# VH: B1 VH with N50S, G55S
# VL: B1 VL with S31T, V33L, L47V
# B46: 368_H03 (antibody, V domains shown)
# VH: B1 VH with S31D, N35H, S49A, N50S, S99A
# VL: B1 VL with V30L, L47V, A51V, A55H, D93S, L94N
# B47: 366_C07 (antibody, V domains shown)
# VH: B1 VH with D30S, G59S
# VL: B1 VL with V30L, S31T, D93N, L94S
# B48: 367_F10 (antibody, V domains shown)
# VH: B1 VH with S33G, N50G, G55S, G59S, S99A
# VL: B1 VL with V30L, S31T, V33L, L94T
# Target: human Fc (human)
# Assay: ELISA, negative control
row,optical density [OD],Binder
1,0.387,B1
2,0.306,B2
3,0.325,B3
4,0.319,B4
5,0.225,B5
6,0.461,B6
7,0.346,B7
8,0.329,B8
9,0.414,B9
10,0.29,B10
11,0.175,B11
12,0.214,B12
13,0.18,B13
14,0.177,B14
15,0.178,B15
16,0.434,B16
17,0.278,B17
18,0.199,B18
19,0.309,B19
20,0.166,B20
21,0.331,B21
22,0.374,B22
23,0.176,B23
24,0.341,B24

row,optical density [OD],Binder
1,0.191,B25
2,0.319,B26
3,0.281,B27
4,0.378,B28
5,0.265,B29
6,0.32,B30
7,0.162,B31
8,0.161,B32
9,0.304,B33
10,0.353,B34
11,0.282,B35
12,0.395,B36
13,0.46,B37
14,0.312,B38
15,0.289,B39
16,0.309,B40
17,0.16,B41
18,0.567,B42
19,0.255,B43
20,0.321,B44
21,0.319,B45
22,0.343,B46
23,0.301,B47
24,0.253,B48
